Publication PMC9408853

Experiments:
[1] = target: human C-C chemokine receptor type 7 (human) (UniProt P32248)
CCR7-LgBiT (human) = CCR7-LgBiT (human) (UniProt P32248)
[2] = target: human C-C chemokine receptor type 7 (human) (UniProt P32248); remark: listed apart in the source

| cellular electrical impedance of HEK293 cells stably expressing CCR7, AUC[0–120], pEC50 [1] | ligand-induced β-arrestin2 recruitment to CCR7 (NanoBiT, CCR7-LgBiT with SmBiT-β-arrestin2 in HEK293 cells), pEC50 (CCR7-LgBiT (human)) | G protein activation, Gαi-1 (nanoBRET, Gαi1-91-NLuc with Gγ2-LSS-mKATE2) in HEK293 cells stably expressing CCR7, pEC50 [2] | G protein activation, Gαi-2 (nanoBRET, Gαi2-91-NLuc with Gγ2-LSS-mKATE2) in HEK293 cells stably expressing CCR7, pEC50 [2] | G protein activation, Gαi-3 (nanoBRET, Gαi3-91-NLuc with Gγ2-LSS-mKATE2) in HEK293 cells stably expressing CCR7, pEC50 [2] | inhibition of forskolin-induced cAMP production (GloSensor) in HEK293 cells stably expressing CCR7, pEC50 [2] | ligand-induced CCR7 internalisation (flow cytometry of surface CCR7, 30 min at 37 °C) in HEK293 cells stably expressing CCR7, pEC50 [2] | Substance |
| --- | --- | --- | --- | --- | --- | --- | --- |
| 6.93 pEC50 (M) | 6.48 pEC50 (M) | 8.44 pEC50 (M) | 8.72 pEC50 (M) | 9.34 pEC50 (M) | 7.67 pEC50 (M) | 6.73 pEC50 (M) | C-C chemokine ligand 21 (from UniProt O00585 24-134) |
| 8.2 pEC50 (M) | 7.61 pEC50 (M) | 8.64 pEC50 (M) | 9.02 pEC50 (M) | 9.61 pEC50 (M) | 7.83 pEC50 (M) | 7.7 pEC50 (M) | C-C chemokine ligand 19 (from UniProt Q99731 22-98) |
